Measured values reported in patent US20250011363A1, “OPTIMIZED SHORTENED PEPTIDE THAT BINDS TO ACETYLCHOLINE RECEPTOR, AND USE THEREOF” (SKINMED CO., LTD., priority 2021, published 2025).

target: acetylcholine receptor; experiment: SPR, peptide at 10 uM

Binding affinity [RU] | Binder
24 | RTAPKK [6mer-2-1100]
38 | RYTKKR [6mer-2-1104]
28 | KDKVKR [6mer-2-1106]
26 | KEDMRK [6mer-2-1109]
42 | RDAWRK [6mer-2-1103]
36 | KKKVRR [6mer-2-1108]
38 | RTKMRR [6mer-2-1101]
32 | KHKGKR [6mer-2-1102]
21 | REDWRR [6mer-2-1099]
28 | RNNAKK [6mer-2-1105]
29 | RAHERK [6mer-2-1107]
37 | RMTKKK [6mer-2-1110]

target: acetylcholine receptor; experiment: SPR, AchR immobilized on chip, peptide 10 uM

Binder | Binding affinity (RU)
KGRQR [5mer-174] | 59
KVVSR [5mer-195] | 82
RWQLK [5mer-175] | 63
RVIRK [5mer-193] | 80
RWYRK [5mer-169] | 61
RRVLK [5mer-178] | 87
RWFRK [5mer-465] | 57
RVLYK [5mer-176] | 52
KLFSK [5mer-168] | 84
RSRRR [5mer-172] | 82
KSFQR [5mer-166] | 55
RLLQK [5mer-189] | 65
RSRQK [5mer-197] | 68
RWVRK [5mer-177] | 77
KLISR [5mer-198] | 74
KLQCR [5mer-184] | 68
KQRYR [5mer-180] | 74
RLYTK [5mer-179] | 55

Binder | Binding affinity (RU)
RSVSR [5mer-173] | 59
KQFRK [5mer-167] | 64
RRYRR [5mer-185] | 86
RWVCR [5mer-187] | 74
RVLSK [5mer-182] | 70
KRVYR [5mer-183] | 64
RLICK [5mer-170] | 62
KSFRK [5mer-192] | 75
RRVRK [5mer-466] | 53
RSLLK [5mer-181] | 72
RVRCR [5mer-191] | 75
KRLQR [5mer-186] | 64
KWFSK [5mer-188] | 82
KSIQR [5mer-171] | 55
RSYYR [5mer-196] | 69
RWRSR [5mer-190] | 84
KWQSK [5mer-194] | 84

More lines, now with the values ahead:

Binding affinity (RU) | Binder
54 | RWQCK [5mer-468]
76 | KRRCR [5mer-497]
54 | RGFCK [5mer-494]
55 | RRYRK [5mer-472]
56 | RRFCK [5mer-475]
53 | KLISK [5mer-498]
69 | RGYLR [5mer-471]
75 | KQFCK [5mer-482]
70 | RSICK [5mer-476]
58 | KVRSR [5mer-488]
57 | KQRSK [5mer-470]
75 | RWYLR [5mer-480]
81 | KGIQK [5mer-496]
51 | RSFQK [5mer-484]
69 | KSRRR [5mer-469]
78 | KSYCK [5mer-481]

Binding affinity (RU) | Binder
83 | RRIYR [5mer-467]
52 | KVVTK [5mer-495]
58 | KGYSR [5mer-477]
60 | RWLLK [5mer-490]
51 | RSISR [5mer-483]
70 | RQYYK [5mer-479]
75 | RVQTK [5mer-478]
75 | RLVQR [5mer-473]
80 | RVVLR [5mer-492]
81 | KQIRR [5mer-491]
80 | RQFLR [5mer-474]
62 | RLVTK [5mer-487]
63 | KSYSR [5mer-489]
53 | RWLQR [5mer-486]
57 | KSIRR [5mer-493]
58 | KRQRK [5mer-485]
